From US20100322948A1, “Bone morphogenetic protein (BMP)-binding domains of proteins of the repulsive guidance molecule (RGM) protein family and functional fragments thereof, and use of same” (ABBOTT GMBH & CO. KG, priority 2007, published 2010)
Entries after “also recorded” stand apart in the source; their conditions may differ.

Assays:
BMP-4 = target: T1, BMP-4 (Homo sapiens, UniProt P12644); assay: In vitro interaction test, variant B: immobilized RGMA-Fc fusion proteins, detection of BMP-4 binding
T1 construct: purchased R&D Systems 314-BM
T1 sequence (P12644 293-408): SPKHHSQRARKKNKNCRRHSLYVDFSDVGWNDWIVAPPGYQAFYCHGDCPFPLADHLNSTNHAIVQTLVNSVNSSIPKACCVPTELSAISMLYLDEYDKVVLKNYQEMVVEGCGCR
Procedure: Test Method 4: In Vitro Interaction Test for Determining the Interaction between RGMA and BMP-2 and -4
The interaction tests were carried out as described below:
Variant B: Immobilization of Various RGMA-Fc Fusion Proteins and Detection of the Binding of the BMP-2/ or -4 Protein
Immunoplate Cert. MaxiSorp F96 (Nunc, 439454)
RGMA-Fc fragments • Volume used: 2.5 μg/mL in Na2CO3; addition: 50 μL per well • 1 hour at 37° C. in damp chamber
3. Washing step: • Wash 3× with PBS/0.02% Tween 20
4. Blocking: • 3% BSA in PBS/0.02% Tween, 1 hour at 37° C. in damp chamber • Addition : 200 μL per well, incubation: 1 hour at 37° C. in damp chamber
Recombinant human BMP-2, Catalog No.: 355-BM, Company: R&D Systems; or
Recombinant human RGM A, R&D Systems; Prod. #2495-RM,
recombinant human BMP-4, Catalog No.: 314-BM, Company: R&D Systems;
Concentration in each case: 10 μg/mL
Dilution steps: in each case 1:2 with PBS/0.02% Tween 20
6. Washing step: • Wash 3× with PBS/0.02% Tween 20
Anti-human BMP-4 biotin antibody; Catalog No.: BAM7572, 1:200 in 1% BSA-PBS-T
8. Washing step: • Wash 3× with PBS/0.02% Tween 20
10. Washing step: • Wash 3× with PBS/0.02% Tween 20
ImmunoPure TMB substrate kit; (Pierce, #34021) • Development period: approximately 1-30 minutes • 1:1 mixture of […]; addition: 50 μL per well
12. Stop: • 2.5 M H2SO4; addition: 50 μL per well
The test was conducted according to test method 4, variant B above, with immobilization of the fusion proteins (1 mg/mL). The binding of BMP-4 was detected using anti-BMP-4 biotin antibodies.
The test was conducted according to test method 4, variant B above, with immobilization of the fusion proteins (1 mg/mL). The binding of BMP-4 and -2 was detected using anti-BMP-4 and anti-BMP-2 biotin antibodies, respectively.

NTera-2 cells = assay: Neurite growth test using NTera-2 cells (test method 2); type: cell-based, human; conditions: FIG. 7B
From the text: Test Method 2: Illustration of the Effect of RGM Peptides in the Neurite Growth Test, Using NTera-2 Cells
The human pluripotent cancer cell line NTera2 (DSMZ ACC527) is established as a cell culture model. Neurites grow from cell aggregates and form a corona of neurites around the particular aggregate.
NTera-2 cells are human embryonic teratocarcinoma cells. A carcinoma is a cancerous tumor, whereas a teratoma or teratocarcinoma is a mixed tumor of the germ cells composed of various differentiated and undifferentiated tissues, and therefore, the same as for the SH-SY5Y culture, comprises a heterogeneous population. The tumor is usually present in an encapsulated form in the various types, such as hair, skin, teeth, muscle, and nerve tissue. The tumors typically originate in the ovaries, testes, abdominal cavity, or brain. The cell line was cloned from the Tera-2 line, obtained from a metastatic teratocarcinoma in a person.
NTera-2 cells are epithelial, adherently growing cells which form a monolayer. Due to the large number of granular particles which they contain, NTera-2 cells may be easily differentiated from the other cells. The cells were cultivated by 1:5 splitting twice a week. The cells of this mixed culture may be differentiated using retinoic acid in neuronal cells.
Culture Medium Fur Growth […]
In order to differentiate the cells it was necessary to introduce antibiotic into the culture medium of the cell line due to the fact that the cells remained in the same culture flask for three weeks. Previously, the undifferentiated culture had been detrypsinated and the cell count determined using a Neubauer counting chamber. […] 25 μL retinoic acid (10 μM) was readded to the medium under dim light conditions. […]
The culture was stored in an incubator at 37° C. with 5% CO2 gassing, and the medium was changed at the beginning and at the end of the week. […] After three weeks the cells were differentiated and were ready for use in experiments. […]
Different plate formats were used for the tests. For the isolation of protein, 6-well plates were necessary for recovering a sufficient quantity. […]

binding of BMP-4 (BMP-4; Working Example 1, FIG. 3, anti-BMP-4 biotin antibodies): more significant binding | binding of BMP-4 (BMP-4; Working Example 2, FIG. 4, anti-BMP-4 biotin antibodies): more significant binding
B1: fragment #786: Fc fusion protein of human RGM A amino acids 47-168 (protein)
chain: PCKILKCNSEFWSATSGSHAPASDDTPEFCAALRSYALCTRRTARTCRGDLAYHSAVHGIEDLMSQHNCSKDGPTSQPRLRTLPPAGDSQERSDSPEICHYEKSFHKHSATPNYTHCGLFGD
modifications: left off: small tags and cut ends; a dimerising Fc or GST
inhibition of neurite growth (NTera-2 cells): inhibit the neurite growth | inhibitory activity in neurite growth test compared with 316-386-Fc (NTera-2 cells; listed as 47-168-Fc): much stronger effect; also recorded: significantly higher activity
